Starred links: 1 amine or outer side, 2 acyl side, 3 side chain; linkers in the order of their positions; H or OH if unused. Non-standard residues stand in square brackets, D forms with d. No end group written: not given here. *: point of attachment. Trp(7-Me) = Cc1cccc2c(C[C@H](N)C(=O)O)c[nH]c12; C20 diacid = O=C(O)CCCCCCCCCCCCCCCCCCC(=O)*; d(γGlu) = O=C(O)[C@@H](CCC(=O)[*:2])N[*:1]; C18 diacid = O=C(O)CCCCCCCCCCCCCCCCC(=O)*; γGlu = O=C(O)[C@H](CCC(=O)[*:2])N[*:1]; Palmitoyl = CCCCCCCCCCCCCCCC(=O)*; 3Pal = N[C@@H](Cc1cccnc1)C(=O)O; Nle = CCCC[C@H](N)C(=O)O; AEEA = NCCOCCOCC(=O)O; Aib = CC(C)(N)C(=O)O; βAla = NCCC(=O)O

The labels stand for the following.
B1: Peptide 153 (peptide)
peptide: {C20 diacid}-[γGlu]GRHWAV[dA]HL[Nle]-NH2
SMILES: CCCC[C@H](NC(=O)[C@H](CC(C)C)NC(=O)[C@H](Cc1c[nH]cn1)NC(=O)[C@@H](C)NC(=O)[C@@H](NC(=O)[C@H](C)NC(=O)[C@H](Cc1c[nH]c2ccccc12)NC(=O)[C@H](Cc1c[nH]cn1)NC(=O)[C@H](CCCNC(=N)N)NC(=O)CNC(=O)CC[C@H](NC(=O)CCCCCCCCCCCCCCCCCCC(=O)O)C(=O)O)C(C)C)C(N)=O
B2: Peptide 152 (peptide)
peptide: {C18 diacid}-[γGlu][AEEA][AEEA]QHWAV[βAla]HL[Nle]-NH2
SMILES: CCCC[C@H](NC(=O)[C@H](CC(C)C)NC(=O)[C@H](Cc1c[nH]cn1)NC(=O)CCNC(=O)[C@@H](NC(=O)[C@H](C)NC(=O)[C@H](Cc1c[nH]c2ccccc12)NC(=O)[C@H](Cc1c[nH]cn1)NC(=O)[C@H](CCC(N)=O)NC(=O)COCCOCCNC(=O)COCCOCCNC(=O)CC[C@H](NC(=O)CCCCCCCCCCCCCCCCC(=O)O)C(=O)O)C(C)C)C(N)=O
B3: Peptide 242 (peptide)
peptide: {C20 diacid}-[γGlu][AEEA][AEEA]GRH[Trp(7-Me)]AV[βAla]HL[Nle]-NH2
SMILES: CCCC[C@H](NC(=O)[C@H](CC(C)C)NC(=O)[C@H](Cc1c[nH]cn1)NC(=O)CCNC(=O)[C@@H](NC(=O)[C@H](C)NC(=O)[C@H](Cc1c[nH]c2c(C)cccc12)NC(=O)[C@H](Cc1c[nH]cn1)NC(=O)[C@H](CCCNC(=N)N)NC(=O)CNC(=O)COCCOCCNC(=O)COCCOCCNC(=O)CC[C@H](NC(=O)CCCCCCCCCCCCCCCCCCC(=O)O)C(=O)O)C(C)C)C(N)=O
B4: Peptide 241 (peptide)
peptide: {C20 diacid}-[γGlu][AEEA][AEEA]GQHWAV[βAla]HL[Nle]-NH2
SMILES: CCCC[C@H](NC(=O)[C@H](CC(C)C)NC(=O)[C@H](Cc1c[nH]cn1)NC(=O)CCNC(=O)[C@@H](NC(=O)[C@H](C)NC(=O)[C@H](Cc1c[nH]c2ccccc12)NC(=O)[C@H](Cc1c[nH]cn1)NC(=O)[C@H](CCC(N)=O)NC(=O)CNC(=O)COCCOCCNC(=O)COCCOCCNC(=O)CC[C@H](NC(=O)CCCCCCCCCCCCCCCCCCC(=O)O)C(=O)O)C(C)C)C(N)=O
B5: Peptide 161 (peptide)
peptide: {C18 diacid}-[γGlu][AEEA][AEEA][dF]QHWAV[dA]HL[Nle]-NH2
SMILES: CCCC[C@H](NC(=O)[C@H](CC(C)C)NC(=O)[C@H](Cc1c[nH]cn1)NC(=O)[C@@H](C)NC(=O)[C@@H](NC(=O)[C@H](C)NC(=O)[C@H](Cc1c[nH]c2ccccc12)NC(=O)[C@H](Cc1c[nH]cn1)NC(=O)[C@H](CCC(N)=O)NC(=O)[C@@H](Cc1ccccc1)NC(=O)COCCOCCNC(=O)COCCOCCNC(=O)CC[C@H](NC(=O)CCCCCCCCCCCCCCCCC(=O)O)C(=O)O)C(C)C)C(N)=O
B6: Peptide 154 (peptide)
peptide: {C20 diacid}-[γGlu]RNHWAV[dA]HL[Nle]-NH2
SMILES: CCCC[C@H](NC(=O)[C@H](CC(C)C)NC(=O)[C@H](Cc1c[nH]cn1)NC(=O)[C@@H](C)NC(=O)[C@@H](NC(=O)[C@H](C)NC(=O)[C@H](Cc1c[nH]c2ccccc12)NC(=O)[C@H](Cc1c[nH]cn1)NC(=O)[C@H](CC(N)=O)NC(=O)[C@H](CCCNC(=N)N)NC(=O)CC[C@H](NC(=O)CCCCCCCCCCCCCCCCCCC(=O)O)C(=O)O)C(C)C)C(N)=O
B7: Peptide 12 (peptide)
peptide: Palmitoyl-[d(γGlu)][AEEA][AEEA]GN[3Pal]WAV[dA]HL[Nle]-NH2
SMILES: CCCCCCCCCCCCCCCC(=O)N[C@H](CCC(=O)NCCOCCOCC(=O)NCCOCCOCC(=O)NCC(=O)N[C@@H](CC(N)=O)C(=O)N[C@@H](Cc1cccnc1)C(=O)N[C@@H](Cc1c[nH]c2ccccc12)C(=O)N[C@@H](C)C(=O)N[C@H](C(=O)N[C@H](C)C(=O)N[C@@H](Cc1c[nH]cn1)C(=O)N[C@@H](CC(C)C)C(=O)N[C@@H](CCCC)C(N)=O)C(C)C)C(=O)O
B8: Peptide 165 (peptide)
peptide: {C20 diacid}-[γGlu]GQHWAV[dA]HL[Nle]-NH2
SMILES: CCCC[C@H](NC(=O)[C@H](CC(C)C)NC(=O)[C@H](Cc1c[nH]cn1)NC(=O)[C@@H](C)NC(=O)[C@@H](NC(=O)[C@H](C)NC(=O)[C@H](Cc1c[nH]c2ccccc12)NC(=O)[C@H](Cc1c[nH]cn1)NC(=O)[C@H](CCC(N)=O)NC(=O)CNC(=O)CC[C@H](NC(=O)CCCCCCCCCCCCCCCCCCC(=O)O)C(=O)O)C(C)C)C(N)=O
B9: Peptide 151 (peptide)
peptide: {C20 diacid}-[γGlu][AEEA][AEEA]GQHWAV[dA]HL[Nle]-NH2
SMILES: CCCC[C@H](NC(=O)[C@H](CC(C)C)NC(=O)[C@H](Cc1c[nH]cn1)NC(=O)[C@@H](C)NC(=O)[C@@H](NC(=O)[C@H](C)NC(=O)[C@H](Cc1c[nH]c2ccccc12)NC(=O)[C@H](Cc1c[nH]cn1)NC(=O)[C@H](CCC(N)=O)NC(=O)CNC(=O)COCCOCCNC(=O)COCCOCCNC(=O)CC[C@H](NC(=O)CCCCCCCCCCCCCCCCCCC(=O)O)C(=O)O)C(C)C)C(N)=O
B10: Peptide 160 (peptide)
peptide: {C20 diacid}-[γGlu]GNHWAV[dA][dH]L[Nle]-NH2
SMILES: CCCC[C@H](NC(=O)[C@H](CC(C)C)NC(=O)[C@@H](Cc1c[nH]cn1)NC(=O)[C@@H](C)NC(=O)[C@@H](NC(=O)[C@H](C)NC(=O)[C@H](Cc1c[nH]c2ccccc12)NC(=O)[C@H](Cc1c[nH]cn1)NC(=O)[C@H](CC(N)=O)NC(=O)CNC(=O)CC[C@H](NC(=O)CCCCCCCCCCCCCCCCCCC(=O)O)C(=O)O)C(C)C)C(N)=O
B11: Peptide 158 (peptide)
peptide: {C20 diacid}-[γGlu]RRHWAV[dA]HL[Nle]-NH2
SMILES: CCCC[C@H](NC(=O)[C@H](CC(C)C)NC(=O)[C@H](Cc1c[nH]cn1)NC(=O)[C@@H](C)NC(=O)[C@@H](NC(=O)[C@H](C)NC(=O)[C@H](Cc1c[nH]c2ccccc12)NC(=O)[C@H](Cc1c[nH]cn1)NC(=O)[C@H](CCCNC(=N)N)NC(=O)[C@H](CCCNC(=N)N)NC(=O)CC[C@H](NC(=O)CCCCCCCCCCCCCCCCCCC(=O)O)C(=O)O)C(C)C)C(N)=O
B12: Peptide 14 (peptide)
peptide: Palmitoyl-[d(γGlu)][AEEA][AEEA]GNH[Trp(7-Me)][Aib]V[dA]HL[Nle]-NH2
SMILES: CCCCCCCCCCCCCCCC(=O)N[C@H](CCC(=O)NCCOCCOCC(=O)NCCOCCOCC(=O)NCC(=O)N[C@@H](CC(N)=O)C(=O)N[C@@H](Cc1c[nH]cn1)C(=O)N[C@@H](Cc1c[nH]c2c(C)cccc12)C(=O)NC(C)(C)C(=O)N[C@H](C(=O)N[C@H](C)C(=O)N[C@@H](Cc1c[nH]cn1)C(=O)N[C@@H](CC(C)C)C(=O)N[C@@H](CCCC)C(N)=O)C(C)C)C(=O)O
B13: Peptide 13 (peptide)
peptide: Palmitoyl-[d(γGlu)][AEEA][AEEA]GNH[Trp(7-Me)]AV[dA]HL[Nle]-NH2
SMILES: CCCCCCCCCCCCCCCC(=O)N[C@H](CCC(=O)NCCOCCOCC(=O)NCCOCCOCC(=O)NCC(=O)N[C@@H](CC(N)=O)C(=O)N[C@@H](Cc1c[nH]cn1)C(=O)N[C@@H](Cc1c[nH]c2c(C)cccc12)C(=O)N[C@@H](C)C(=O)N[C@H](C(=O)N[C@H](C)C(=O)N[C@@H](Cc1c[nH]cn1)C(=O)N[C@@H](CC(C)C)C(=O)N[C@@H](CCCC)C(N)=O)C(C)C)C(=O)O
B14: Peptide 159 (peptide)
peptide: {C18 diacid}-[γGlu][AEEA][AEEA]GNHWAV[dA][dH]L[Nle]-NH2
SMILES: CCCC[C@H](NC(=O)[C@H](CC(C)C)NC(=O)[C@@H](Cc1c[nH]cn1)NC(=O)[C@@H](C)NC(=O)[C@@H](NC(=O)[C@H](C)NC(=O)[C@H](Cc1c[nH]c2ccccc12)NC(=O)[C@H](Cc1c[nH]cn1)NC(=O)[C@H](CC(N)=O)NC(=O)CNC(=O)COCCOCCNC(=O)COCCOCCNC(=O)CC[C@H](NC(=O)CCCCCCCCCCCCCCCCC(=O)O)C(=O)O)C(C)C)C(N)=O

human GRP receptor, sequence (P30550 whole entry): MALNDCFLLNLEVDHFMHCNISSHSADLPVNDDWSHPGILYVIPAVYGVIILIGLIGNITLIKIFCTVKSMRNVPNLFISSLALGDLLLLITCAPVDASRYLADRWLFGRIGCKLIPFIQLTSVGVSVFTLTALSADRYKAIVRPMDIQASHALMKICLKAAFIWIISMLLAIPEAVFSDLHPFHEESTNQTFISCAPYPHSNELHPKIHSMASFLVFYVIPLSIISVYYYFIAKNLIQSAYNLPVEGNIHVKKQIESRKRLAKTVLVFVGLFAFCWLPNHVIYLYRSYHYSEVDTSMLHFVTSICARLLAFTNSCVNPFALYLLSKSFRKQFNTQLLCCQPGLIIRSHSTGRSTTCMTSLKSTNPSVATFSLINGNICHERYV

This test concerns the target human GRP receptor (human, UniProt P30550 1-384). The test is described as follows: cell-based or functional assay.
B1: the “hIP1 GRPR EC50” value was 2.87 nM. Then B2, with 3.9 nM. B3: the “hIP1 GRPR EC50” value amounted to 3.9 nM. As for B4, the “hIP1 GRPR EC50” value came to 2 nM. Then B5, with 21.4 nM; and B6, with 7.09 nM. Then B7, with 1.8 nM; and B8, with 1.55 nM.

For the molecule B9, the “hIP1 GRPR EC50” value came out at 2.92 nM. Then EEXXGNHWAVGHLX (Palmitoyl-γGlu-γGlu-OEG-OEG-Gly-Asn-His-Trp-Ala-Val-Gly-His-Leu-Nle-NH2) [Peptide 240], with 11.9 nM; and {C20 diacid}-[γGlu]RNHWAV[dA]HL[Nle] [Peptide 155], with 132 nM. Turning to B10, the “hIP1 GRPR EC50” value came out at 31.5 nM. For the molecule {C20 diacid}-[γGlu]GRHWAV[dA]HL[Nle] [Peptide 162], the “hIP1 GRPR EC50” value came to 19.6 nM. With {C18 diacid}-[γGlu][AEEA][AEEA]GRHWAV[dA]HL[Nle] [Peptide 166], the “hIP1 GRPR EC50” value turned out to be 248 nM. Then {C20 diacid}-[γGlu]GNHWAV[dA]HL[Nle] [Peptide 164], with 125 nM; and {C20 diacid}-[γGlu][AEEA][AEEA]GRHWAV[dA]HL[Nle] [Peptide 167], with 114 nM; and B11, with 1.68 nM.

With B12, the “hIP1 GRPR EC50” value was 10.8 nM.

In the case of {C20 diacid}-[γGlu]RRHWAV[dA]HL[Nle] [Peptide 163], the “hIP1 GRPR EC50” value is 88.5 nM. Then B13, with 1.08 nM.

For {C18 diacid}-[γGlu][AEEA][AEEA]RNHWAV[dA]HL[Nle] [Peptide 156], the “hIP1 GRPR EC50” value amounted to 358 nM. Then B14, with 101 nM; and {C18 diacid}-[γGlu][AEEA][AEEA]RRHWAV[dA]HL[Nle] [Peptide 157], with 161 nM.
